# Experimental data from US20040023887A1 (published 2004).
# B1: B6Hα-3-E6-IR (peptide)
# peptide: CGAKMTGTPNDPFYHKLSELLQRG
# notes: library tags and phage coat protein not included
# B2: B6Hα-3-E5-IR (peptide)
# peptide: RCGDEEGWQENRRDDPFYHKLSELFGGC
# notes: as for B1
# B3: B6Hα-1-B3-IR (peptide)
# peptide: GCITAENGAGDPFYHKLSELGGCS
# notes: as for B1
# B4: 20E2Bβ-3-C7-IR (peptide)
# peptide: QSGSGDFYDWLSRLIRGNGDG
# notes: as for B1
# B5: 20E2A-4-G11-IGFR (peptide)
# peptide: MNVFVSFYDAIDQLVCQRIGC
# notes: as for B1
# B6: B6Hα-2-D8-IR (peptide)
# peptide: SSETAKMVTGTRDDPFYHKLSELVQGS
# notes: as for B1
# B7: B6Hα-3-F7-IR (peptide)
# peptide: SRVAATKEKRPSDDPFYHKLSELLQGS
# notes: as for B1
# B8: 20E2A-3-A4-IGFR (peptide)
# peptide: AGSVTSFYDAMEQLVATGTSA
# notes: as for B1
# B9: 20E2A-3-A3-IGFR (peptide)
# peptide: GHYFGSFYDAIDQLVAGMLPG
# notes: as for B1
# Molecular target: T1, soluble IGF-1R (recombinant human IGF-1R extracellular domain, R&D Systems Cat. # 391-GR/CF) (human, UniProt P08069 31-935)
# T1 construct: extracellular domain; Bought protein; coated on plates (phage ELISA, TRF) or Eu-labelled (TR-FRET); also called sIGF-1R; rhIGF-1R
# Assay: phage ELISA
row,Binder,ratio over background [ratio]
1,SSCDGAGHESFYEWFVRQVSGCRSV (on phage) [H2CA-3-C6-IGFR],5.6
2,RFDPFYSYFVNLLGASA (on phage) [NNRPγ-4-A7-IR],6.3
3,VNQSGSIHENFYDWFERQVSHQRGVR (on phage) [H2CA-4-F10-IGFR],5.7
4,RGKTAAVIVGRPADPFYHKLSELLQGG (on phage) [B6Hα-3-E8-IR],5.3
5,AETSVQVGWIRLQSVWPGEHWNTVDPFYHKLSELLRGSGA (on phage) [B6L-4-D7-IR],4.8
6,GGTKAVAKVGTRDDPFYHKLSELLQGS (on phage) [B6Hα-4-G8-IR],6.1
7,RQGTGSFYLMLEQLLVGARGP (on phage) [20E2B-4-G11-IGFR],4.5
8,GCEVIVEEGDSADPFYHKLSELCQGS (on phage) [B6Hα-2-D1-IR],5.4
9,VGTVAGFYDAIAQLVARASRV (on phage) [20E2A-3-C7-ICFR],5.4
10,SRAKVEAEMPDSGDPFYHKLSELLASG (on phage) [B6Hα-1-A3-IR],2.6
11,AVRATRFDEAFYDWFVRQISDGQGNK (on phage) [H2CA-4-F6-IGFR],7.3
12,TLDGGSFEEQFYDWFVRQLSYRTNPD (on phage) [H2CA-4-G11-IGFR],9.5
13,SGAKVIVVTGDSGDPFYHKLSELLQGS (on phage) [B6Hα-2-C10-IR],5.8
14,GFREGNFYEWFQAQVT (on phage) [E4Dα-4-H2-IR],33.9
15,QSPVGSSHEDFYDWFFRQVAQSGAHQ (on phage) [H2CA-3-D6-IGFR],9
16,NYRRQVFNGNFYDWFDRQVFSLVTPG (on phage) [H2CA-3-D8-IGFR],7.2
17,RCQGTGFYTCIQELIGFGDPD (on phage) [20E2B-4-H9-IGFR],5.2
18,LSSDGQFYRALNLLLQGSAGR (on phage) [20E2B-2-B7-IGFR],6.1
19,RCGRELYHSTFYDWFDRQVAGRTCPS (on phage) [H2CA-1-A7-IGFR],2.2
20,GAPVDQLHEDFYDWFVRQVSQAATG (on phage) [H2CA-2-B2-IGFR],3.4

row,Binder,ratio over background [ratio]
1,FFYRCLSRLLGGQLGSRLGLSCIGD (on phage) [20C-3-E4-IGFR],7.7
2,ASSASGFYELLQRLAGLGLEV (on phage) [20E2B-3-C4-IGFR],20.4
3,APDPSDFQEIFYDWFVRQVSRMPGGG (on phage) [H2CA-1-A3-IGFR],3.8
4,GIISQSCPESFYDWFAGQVSDPWWCW (on phage) [H2CA-4-G9-IGFR],9.5
5,PAGPCGFYCGLGLLLHGDQSP (on phage) [20E2B-4-H8-IGFR],5.3
6,LSVALSFYDALGQLVAGEGRW (on phage) [20E2A-3-A12-IGFR],4.3
7,MMVVDGFYDALHQLVVAQSLG (on phage) [20E2A-3-D10-IGFR],6.9
8,GCAVVEEAERSRGDPFYHKLSELIQGC (on phage) [B6Hα-3-E7-IR],5.6
9,PPLASDLDVQFYGWFVQQVSPPGRGG (on phage) [H2CA-2-B3-IGFR],3.8
10,EGSGFYGYFFSLLGLQG (on phage) [NNRPγ-4-A9-IR],10
11,FYVQQWGHENFYDWFDRQVSQSGGAG (on phage) [H2CA-4-F1-IGFR],3.5
12,TLRSPTFYDWLEMVLTHGQGG (on phage) [20E2B-1-A8-IGFR],4.4
13,QAVQPGFHEEFYDWFVRQVSTGVGGG (on phage) [H2CA-4-H4-IGFR],4.1
14,LRRQAPVEENFYDWFVRQVSGDRVGG (on phage) [H2CA-3-D7-IGFR],3
15,SSIGGGFHENFYDWFSRQLSQSPPLK (on phage) [H2CA-4-F7-IGFR],3.2
16,IIGGFYSYFNSVLRLGT (on phage) [NNRPγ-4-A1-IR],10.9
17,CCLLCRFQQNFYDWFVCQGISRLRPL (on phage) [H2CA-2-B4-IGFR],4.1
18,DSVGDNFYQLLESLVGGHGVG (on phage) [20E2B-3-D6-IGFR],17.8
19,RAGSSDFHEDFYEWFVRQVSLSLKGK (on phage) [H2CA-2-B9-IGFR],7
20,GCVVEWQKWHGASDPFYHKLSELGGCS (on phage) [B6Hα-3-F10-IR],8.8

# Molecular target: T2, soluble human insulin receptor-immunoglobulin heavy chain chimera (human, UniProt P06213 28-956, limits assumed)
# T2 construct: extracellular domain; also called sIR-Fc; IR (prepared according to Bass et al., 1996); not shown: immunoglobulin heavy chain constant domains (Bass et al., 1996)
# Assay: phage ELISA
row,Binder,ratio over background [ratio]
1,SSCDGAGHESFYEWFVRQVSGCRSV (on phage) [H2CA-3-C6-IGFR],1.2
2,RFDPFYSYFVNLLGASA (on phage) [NNRPγ-4-A7-IR],1.3
3,VNQSGSIHENFYDWFERQVSHQRGVR (on phage) [H2CA-4-F10-IGFR],1
4,RGKTAAVIVGRPADPFYHKLSELLQGG (on phage) [B6Hα-3-E8-IR],1.1
5,AETSVQVGWIRLQSVWPGEHWNTVDPFYHKLSELLRGSGA (on phage) [B6L-4-D7-IR],1.4
6,GGTKAVAKVGTRDDPFYHKLSELLQGS (on phage) [B6Hα-4-G8-IR],1.7
7,RQGTGSFYLMLEQLLVGARGP (on phage) [20E2B-4-G11-IGFR],0.6
8,GCEVIVEEGDSADPFYHKLSELCQGS (on phage) [B6Hα-2-D1-IR],1.3
9,VGTVAGFYDAIAQLVARASRV (on phage) [20E2A-3-C7-ICFR],1.1
10,SRAKVEAEMPDSGDPFYHKLSELLASG (on phage) [B6Hα-1-A3-IR],0.8
11,AVRATRFDEAFYDWFVRQISDGQGNK (on phage) [H2CA-4-F6-IGFR],1.1
12,TLDGGSFEEQFYDWFVRQLSYRTNPD (on phage) [H2CA-4-G11-IGFR],2.5
13,SGAKVIVVTGDSGDPFYHKLSELLQGS (on phage) [B6Hα-2-C10-IR],1.1
14,GFREGNFYEWFQAQVT (on phage) [E4Dα-4-H2-IR],8.2
15,QSPVGSSHEDFYDWFFRQVAQSGAHQ (on phage) [H2CA-3-D6-IGFR],2.2
16,NYRRQVFNGNFYDWFDRQVFSLVTPG (on phage) [H2CA-3-D8-IGFR],1.8
17,RCQGTGFYTCIQELIGFGDPD (on phage) [20E2B-4-H9-IGFR],0.9
18,LSSDGQFYRALNLLLQGSAGR (on phage) [20E2B-2-B7-IGFR],0.9
19,RCGRELYHSTFYDWFDRQVAGRTCPS (on phage) [H2CA-1-A7-IGFR],0.6
20,GAPVDQLHEDFYDWFVRQVSQAATG (on phage) [H2CA-2-B2-IGFR],1

row,Binder,ratio over background [ratio]
1,FFYRCLSRLLGGQLGSRLGLSCIGD (on phage) [20C-3-E4-IGFR],1.3
2,ASSASGFYELLQRLAGLGLEV (on phage) [20E2B-3-C4-IGFR],3.3
3,APDPSDFQEIFYDWFVRQVSRMPGGG (on phage) [H2CA-1-A3-IGFR],0.8
4,GIISQSCPESFYDWFAGQVSDPWWCW (on phage) [H2CA-4-G9-IGFR],0.6
5,PAGPCGFYCGLGLLLHGDQSP (on phage) [20E2B-4-H8-IGFR],0.9
6,LSVALSFYDALGQLVAGEGRW (on phage) [20E2A-3-A12-IGFR],1.1
7,MMVVDGFYDALHQLVVAQSLG (on phage) [20E2A-3-D10-IGFR],1.8
8,GCAVVEEAERSRGDPFYHKLSELIQGC (on phage) [B6Hα-3-E7-IR],1.3
9,PPLASDLDVQFYGWFVQQVSPPGRGG (on phage) [H2CA-2-B3-IGFR],1
10,EGSGFYGYFFSLLGLQG (on phage) [NNRPγ-4-A9-IR],1.4
11,FYVQQWGHENFYDWFDRQVSQSGGAG (on phage) [H2CA-4-F1-IGFR],0.9
12,TLRSPTFYDWLEMVLTHGQGG (on phage) [20E2B-1-A8-IGFR],0.9
13,QAVQPGFHEEFYDWFVRQVSTGVGGG (on phage) [H2CA-4-H4-IGFR],1
14,LRRQAPVEENFYDWFVRQVSGDRVGG (on phage) [H2CA-3-D7-IGFR],0.8
15,SSIGGGFHENFYDWFSRQLSQSPPLK (on phage) [H2CA-4-F7-IGFR],0.8
16,IIGGFYSYFNSVLRLGT (on phage) [NNRPγ-4-A1-IR],1.8
17,CCLLCRFQQNFYDWFVCQGISRLRPL (on phage) [H2CA-2-B4-IGFR],1.1
18,DSVGDNFYQLLESLVGGHGVG (on phage) [20E2B-3-D6-IGFR],2.6
19,RAGSSDFHEDFYEWFVRQVSLSLKGK (on phage) [H2CA-2-B9-IGFR],1.7
20,GCVVEWQKWHGASDPFYHKLSELGGCS (on phage) [B6Hα-3-F10-IR],1.9

# Molecular target: T3, Soluble IGF-1R (R&D Systems, Cat. # 391-GR/CF) (human, UniProt P08069 31-935)
# T3 construct: extracellular domain; the precursor is cleaved into alpha and beta subunits; also called sIGF-1R
# Assay: phage ELISA, receptor coated on plate; A405 over non-fat milk
row,Binder,ratio over background (IGF-1R) [fold over background]
1,B1,2.3
2,B2,2.9
3,B3,3.2
4,B4,3.1
5,B5,3.3
6,B6,3
7,B7,3.1
8,B8,2.5
9,B9,3

# Molecular target: T4, Insulin receptor prepared according to Bass et al., 1996 (soluble IR-immunoglobulin chimera) (human, UniProt P06213 28-956)
# T4 construct: extracellular domain; also called sIR-Fc; soluble IR (Bass construct); not shown: immunoglobulin constant domains replacing the transmembrane and intracellular domains
# Assay: as above
row,Binder,ratio over background (IR) [fold over background]
1,B1,1.2
2,B2,1
3,B3,1.1
4,B4,1.5
5,B5,1.3
6,B6,1
7,B7,1
8,B9,1.5
